Data published in patent US20170189513A1.

What follows are binders tested against HLA-A*24 (human) (assay: UV-ligand exchange, b2m ELISA).

Row | Binder | peptide exchange yield [%]
1 | KYQDILETI [… (SEQ ID No 168)] | > 75
2 | IYLVSIPEL [… (SEQ ID No 161)] | > 75
3 | VYVGGGQIIHL [… (SEQ ID No 174)] | 50 to 75
4 | YYVESGKLF [… (SEQ ID No 166)] | > 75
5 | LYNKGFIYL [… (SEQ ID No 159)] | > 75
6 | IYSWILDHF [… (SEQ ID No 173)] | > 75
7 | NYINRILKL [… (SEQ ID No 167)] | > 75
8 | AYTLIAPNI [… (SEQ ID No 169)] | 50 to 75
9 | DYLKGLASF [… (SEQ ID No 163)] | > 75
10 | YYEVHKELF [… (SEQ ID No 175)] | > 75
11 | VYEDQVGKF [… (SEQ ID No 170)] | 20 to 49
12 | LFIPSSKLLFL [… (SEQ ID No 171)] | 50 to 75
13 | VYTLDIPVL [… (SEQ ID No 160)] | > 75
14 | KFSSFSLFF [… (SEQ ID No 164)] | 50 to 75
15 | VFTRVSSFL [… (SEQ ID No 162)] | 50 to 75
16 | DYTTWTALL [… (SEQ ID No 165)] | > 75
17 | HYSQELSLLYL [… (SEQ ID No 158)] | > 75

Results, then the binder that gave them:

Row | peptide exchange yield [%] | Binder
18 | > 75 | TYELRYFQI [… (SEQ ID No 204)]
19 | 50 to 75 | HYPPVQVLF [… (SEQ ID No 285)]
20 | 50 to 75 | QYLGQIQHI [… (SEQ ID No 268)]
21 | > 75 | VYWDSAGAAHF [… (SEQ ID No 202)]
22 | 50 to 75 | IYATEAHVF [… (SEQ ID No 201)]
23 | 50 to 75 | LYITEPKTI [… (SEQ ID No 287)]
24 | 50 to 75 | EYNQWFTKL [… (SEQ ID No 176)]
25 | 20 to 49 | PYRLIFEKF [… (SEQ ID No 281)]
26 | 50 to 75 | EYSLFPGQVVI [… (SEQ ID No 197)]
27 | 50 to 75 | TFSVSSHLF [… (SEQ ID No 222)]
28 | 50 to 75 | RYAEEVGIF [… (SEQ ID No 199)]
29 | 50 to 75 | TYKDEGNDYF [… (SEQ ID No 209)]
30 | 50 to 75 | YFIDSTNLKTHF [… (SEQ ID No 269)]
31 | > 75 | TYSVSFPMF [… (SEQ ID No 195)]
32 | 20 to 49 | AYVVFVSTL [… (SEQ ID No 207)]
33 | > 75 | VYQGHTALL [… (SEQ ID No 277)]
34 | 50 to 75 | YYKSTSSAF [… (SEQ ID No 218)]
35 | 50 to 75 | YYGPSLFLL [… (SEQ ID No 200)]
36 | 50 to 75 | NYYEVHKELF [… (SEQ ID No 270)]
37 | 50 to 75 | LYIDRPLPYL [… (SEQ ID No 196)]
